B1: Ferredoxin-thioredoxin reductase, catalytic chain (Synechocystis sp. (strain PCC 6803 / Kazusa)), Q55389 (parent)
chain: MTSSDTQNNKTLAAMKNFAEQYAKRTDTYFCSDLSVTAVVIEGLARHKEELGSPLCPCRHYEDKEAEVKNTFWNCPCVPMRERKECHCMLFLTPDNDFAGDAQDIPMETLEEVKASMA
partner: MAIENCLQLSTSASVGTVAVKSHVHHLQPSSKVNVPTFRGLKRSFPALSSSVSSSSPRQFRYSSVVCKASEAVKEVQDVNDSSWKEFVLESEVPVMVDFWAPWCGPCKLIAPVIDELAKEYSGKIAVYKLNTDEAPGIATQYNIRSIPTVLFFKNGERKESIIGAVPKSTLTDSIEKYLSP
B2: Ferredoxin-thioredoxin reductase, catalytic chain (Synechocystis sp. (strain PCC 6803 / Kazusa)), Q55389 (parent)
chain: B1 chain
partner: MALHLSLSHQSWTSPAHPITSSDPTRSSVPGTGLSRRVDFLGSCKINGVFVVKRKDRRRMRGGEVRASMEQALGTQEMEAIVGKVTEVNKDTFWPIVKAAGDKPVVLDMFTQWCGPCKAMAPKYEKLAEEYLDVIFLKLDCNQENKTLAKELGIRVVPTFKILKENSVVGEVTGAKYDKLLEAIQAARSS
B3: Thioredoxin M-type, chloroplastic (Spinacia oleracea (Spinach)), P07591 (parent)
chain: B1 partner
partner: B1 chain

Variants of: B1
Settings: with trxm_spiol trxm, P07591

| Variant | effect of a mutation on the interaction |
| --- | --- |
| H87Y | decreasing interaction |

Variants of: B2
Settings: with trxf_spiol trxf

| Variant | effect of a mutation on the interaction |
| --- | --- |
| C58S | increasing interaction |

Variants of: B3
Settings: with ftrc_syny3 ftrC, Q55389

| Variant | effect of a mutation on the interaction |
| --- | --- |
| C107S | increasing interaction |

From IntAct's records for PubMed 14769790
